The results in this text go back to patent publication US20040063116.

The target in series [1] is T1, RNase A zymogen with 88/89 termini, P61823.
T1 chain: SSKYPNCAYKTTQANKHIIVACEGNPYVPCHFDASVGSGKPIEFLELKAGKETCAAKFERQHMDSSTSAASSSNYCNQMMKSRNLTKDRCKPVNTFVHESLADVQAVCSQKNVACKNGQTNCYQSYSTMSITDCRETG

Series [2] deals with T2, RNase A zymogen with 104/105 termini, P61823.
T2 chain: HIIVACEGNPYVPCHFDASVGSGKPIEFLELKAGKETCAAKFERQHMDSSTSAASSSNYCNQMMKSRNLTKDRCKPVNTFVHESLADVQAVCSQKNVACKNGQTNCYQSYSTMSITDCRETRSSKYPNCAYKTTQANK

Series [3] addresses T3, RNase A zymogen with 113/114 termini, P61823.
T3 chain: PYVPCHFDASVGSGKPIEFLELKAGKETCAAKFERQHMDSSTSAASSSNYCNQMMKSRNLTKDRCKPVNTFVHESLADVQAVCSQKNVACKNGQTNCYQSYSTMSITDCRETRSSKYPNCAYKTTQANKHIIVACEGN

Series [4] addresses RNase A zymogen with 20/21 termini, P61823.
Series [5] deals with T4, RNase A zymogen with 67/71 termini, P61823.
T4 chain: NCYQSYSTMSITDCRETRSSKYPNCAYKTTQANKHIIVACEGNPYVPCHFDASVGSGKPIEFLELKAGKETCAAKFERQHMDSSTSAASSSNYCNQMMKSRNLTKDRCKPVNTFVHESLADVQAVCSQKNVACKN

Sequence of RNase A zymogen with 20/21 termini, P61823 (P61823 whole entry, looked up): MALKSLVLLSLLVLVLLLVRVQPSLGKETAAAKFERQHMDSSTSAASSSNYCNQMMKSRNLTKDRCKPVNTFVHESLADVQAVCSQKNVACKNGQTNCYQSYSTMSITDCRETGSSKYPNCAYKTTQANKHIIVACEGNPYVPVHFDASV

B1: plasmepsin II (protein)
chain: MDITVREHDFKHGFIKSNSTFDGLNIDNSKNKKKIQKGFQILYVLLFCSVMCGLFYYVYENVWLQRDNEMNEILKNSEHLTIGFKVENAHDRILKTIKTHKLKNYIKESVNFLNSGLTKTNYLGSSNDNIELVDFQNIMFYGDAEVGDNQQPFTFILDTGSANLWVPSVKCTTAGCLTKHLYDSSKSRTYEKDGTKVEMNYVSGTVSGFFSKDLVTVGNLSLPYKFIEVIDTNGFEPTYTASTFDGILGLGWKDLSIGSVDPIVVELKNQNKIENALFTFYLPVHDKHTGFLTIGGIEERFYEGPLTYEKLNHDLYWQITLDAHVGNIMLEKANCIVDSGTSAITVPTDFLNKMLQNLDVIKVPFLPFYVTLCNNSKLPTFEFTSENGKYTLEPEYYLQHIEDVGPGLCMLNIIGLDFPVPTFILGDPFMRKYFTVFDYDNHSVGIALAKKNL
B1: the “proteolytic cleavage of the zymogen (SDS-PAGE) and gain of ribonucleolytic activity” value in series [1], in series [2], in series [3], in series [4] and in series [5] was “The proteolytic cleavage by plasmepsin II was complete within 10 minutes at an approximately 1:100 molar ratio of protease to zymogen” each time.
